± gives the uncertainty stated by the source.
Test: self-splicing fitness, log relative to wild type (ln ratio); higher = more splicing; Tetrahymena group I intron in knt gene, E. coli kanamycin selection, DiMSum; sequences stand for … in CUCUCU…GGAGGGAAAAGUUAUCAGGCAUGCACCUGGUAGCUAGUCUUUAAACCAAUAGAUUGCAUCGGUUUAAAAGGCAAGACCGUCAAAUUGCGGGAAAGGGGUCAACAGCCGUUCAGUACCAAGUCUCAGGGGAAACUUUGAGAUGGCCUUGCAAAGGGUAUGGUAAUAAGCUGACGGACAUGGUCCUAACCACGCAGCCAAGUCCUAAGUCAACAGAUCUUCUGUUGAUAUGGAUGCAGUUCACAGACUAAAUGUCGGUCGGGGAAGAUGUAUUCUUCUCAUAAGAUAUAGUCGGACCUCUCCUUAAUGGGAGCUAGCGGAUGAAGUGAUGCAACACUGGAGCCGCUGGGAACUAAUUUGUAUGCGAAAGUAUAUUGAUUAGUUUUGGAGUACUCGUGGUCG
How it was run: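 Colonies from six replicate transformations of E. coli BL21(DE3) were pooled and amplicon-sequenced on an Illumina HiSeq 2500. The library placed an intron with all eight P1ex-region nucleotides randomised inside the knt kanamycin-resistance gene on pET-22b(+), and cells grew overnight at 37°C or 30°C on LB agar with or without 25 μg/mL kanamycin (plus 100 μg/mL carbenicillin, 50 μM IPTG, 0.2% rhamnose). Fitness is the DiMSum error-weighted combination of wild-type-normalised replicate fold changes, kanamycin versus none.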

| Sequence | self-splicing fitness (ln) (30 °C) | self-splicing fitness (ln) (37 °C) |
| --- | --- | --- |
| AUGAAGCAAUAUUACGAGGA | -1.44 ± 0.14 | -2.6 ± 0.2 |
| AUGAAGCAAUAUUACGAUGC | -1.95 ± 0.13 | -0.813 ± 0.17 |
| AUGAAGCAAUAUUACGCAGG | -0.47 ± 0.12 | -0.916 ± 0.14 |
| AUGAAGCAAUAUUACGCAUC | -4.84 ± 0.29 | -2.45 ± 0.17 |
| AUGAAGCAAUAUUACGCCCU | 0.921 ± 0.15 | 0.202 ± 0.17 |
| AUGAAGCAAUAUUACGCGAC | -2.1 ± 0.15 | -1.96 ± 0.27 |
| AUGAAGCAAUAUUACGCGAG | -0.689 ± 0.09 | -0.225 ± 0.099 |
| AUGAAGCAAUAUUACGCGAU | -2.89 ± 0.21 | -1.59 ± 0.23 |
| AUGAAGCAAUAUUACGGAAC | -0.855 ± 0.098 | -1.24 ± 0.15 |
| AUGAAGCAAUAUUACGGACC | -0.516 ± 0.22 | 0.108 ± 0.23 |
| AUGAAGCAAUAUUACGGCCC | -0.0924 ± 0.12 | 0.156 ± 0.17 |
| AUGAAGCAAUAUUACGGCUC | -0.602 ± 0.12 | 0.254 ± 0.13 |
| AUGAAGCAAUAUUACGUACU | 0.105 ± 0.096 | 0.581 ± 0.11 |
| AUGAAGCAAUAUUACGUCUC | -1.1 ± 0.14 | -1.22 ± 0.14 |
| AUGAAGCAAUAUUACGUGCA | -0.0826 ± 0.093 | 0.364 ± 0.11 |
| AUGAAGCAAUAUUACGUUAA | -1.51 ± 0.084 | -0.908 ± 0.1 |
| AUGAAGCAAUAUUACGUUAC | -1.96 ± 0.13 | -2.38 ± 0.24 |
| AUGAAGCAAUAUUACGUUAU | -0.343 ± 0.071 | -0.555 ± 0.096 |
| AUGCAGCAAUAUUACGAAAA | – | -2.23 ± 0.42 |

| Sequence | self-splicing fitness (ln) (30 °C) | self-splicing fitness (ln) (37 °C) |
| --- | --- | --- |
| AUGCAGCAAUAUUACGAAGU | -2 ± 0.15 | -1.75 ± 0.12 |
| AUGCAGCAAUAUUACGAUCC | -1.78 ± 0.22 | -0.259 ± 0.29 |
| AUGCAGCAAUAUUACGAUGG | -3.04 ± 0.21 | -2.94 ± 0.27 |
| AUGCAGCAAUAUUACGCAAU | -2.65 ± 0.12 | -1.98 ± 0.13 |
| AUGCAGCAAUAUUACGCAGC | – | -1.91 ± 0.46 |
| AUGCAGCAAUAUUACGCCAG | -2.18 ± 0.13 | -1.23 ± 0.17 |
| AUGCAGCAAUAUUACGCCGU | -1.25 ± 0.069 | -0.859 ± 0.083 |
| AUGCAGCAAUAUUACGCCUU | -0.919 ± 0.072 | -0.304 ± 0.095 |
| AUGCAGCAAUAUUACGCGCC | -0.788 ± 0.15 | -0.038 ± 0.16 |
| AUGCAGCAAUAUUACGCUAA | -0.813 ± 0.13 | -0.31 ± 0.12 |
| AUGCAGCAAUAUUACGUGGU | -2.7 ± 0.095 | -2.18 ± 0.1 |
| AUGGAGCAAUAUUACGACAG | -2.74 ± 0.28 | -0.415 ± 0.28 |
| AUGGAGCAAUAUUACGACGC | -1.44 ± 0.16 | -0.789 ± 0.19 |
| AUGGAGCAAUAUUACGAUCA | – | -1.09 ± 0.25 |
| AUGGAGCAAUAUUACGAUGC | -2.15 ± 0.37 | -2.04 ± 0.35 |
| AUGGAGCAAUAUUACGCAUG | -2.5 ± 0.34 | -2.36 ± 0.25 |
| AUGGAGCAAUAUUACGCCGA | -2.82 ± 0.32 | -2.87 ± 0.48 |
| AUGGAGCAAUAUUACGCGGA | -2.73 ± 0.29 | -1.34 ± 0.22 |
| AUGGAGCAAUAUUACGGAAU | -2.66 ± 0.32 | -2.02 ± 0.47 |

Reference: the supplement of paper PMC7877785
